The series in a line: yeast display, Sf9 membrane polyspecificity reagent, FACS + sequencing; frameworks hold sequencing errors. The method, boiled down: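 Nanobodies came from a synthetic yeast display library in Saccharomyces cerevisiae BJ5465, induced with galactose for 36–48 hours and stained for 1 hour at 4 °C with 10% biotinylated, detergent-solubilized Sf9 membrane reagent. Cells were enriched on streptavidin microbeads and then FACS-sorted, with low and high (top ~1%) gates set on anti-HA fluorescence for expression and streptavidin fluorescence for reagent binding. Each polyreactivity label reflects the gate a clone came from. Genes were amplified by colony PCR, sequenced by MiSeq 2 × 250 and filtered by CDR length.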
In the case of “QVQLVESGGGLVQAGGSLRLSCAASGSTFRPNAMGWYRQAPGKERELVAAITSGGSTYYADSVKGRFTISRDNAKNTVYLQMNSLKPEDTAVYYCNKDKFWSYPVQVNLDYWGQGTQVTVSS”, the “polyreactivity (PSR sort gate)” value was “low polyreactivity”.

Regarding “QVQLVESGGGLVQAGGSLRLSCAASGRIFPDNTMGWYRQAPGTERELVAAITSSGGSTYYADSVKGRFTISRDNAKNTVYLQMNSLKPEDTAVYYCAAAVKRGYAQSFISDGYGYWGQGTQVTVSS”, the “polyreactivity (PSR sort gate)” value is reported as “low polyreactivity”.

Regarding “QVQLVESGGGLVQAGGSLRLSCAASGSTFSYYAMGSYRQAPGKERELVADISWSGGSTYYADSVKGRFTISRDNAKNTVYLQMNSLKPEDTAVYYCAARGYVRWYNRYDYWGQGTQVTVSS”, the “polyreactivity (PSR sort gate)” value was “low polyreactivity”.

As to “QVQLVESGGGLVQAGGSLRLSCAASGRTFILYAMGWYRQAPWKERELVAAITRRGGRTYYADSVKGRFTISRDNAKNTVYLQMNSLKREDTAVYYCAADQYYYTQPSDMDYWGQGTQVTVSS”, the “polyreactivity (PSR sort gate)” value was “high polyreactivity”.

Regarding “QVQLVESGGGLVQAGGSLRLSCAASGFIFFAYAMGWYRQAPGKERELVAAISRTGGSTYYADSVKGRFTISRDNAKNTVYLQMNSLKPEDTAVYYCARPKYAWSYSRGNYWGQGTQVTVSS”, the “polyreactivity (PSR sort gate)” value is on record as “high polyreactivity”.

In the case of “QVQLVESGGRLVQAGGRLRLICAASGFIFSDYAMGWYRQAPGKERELVAAISWRGGSTYYADSVKGRFTISRDKEKNSVYLQMNSLKPEDTAVYYCAADYGAYDMDYWGQGTQVTVSS”, the “polyreactivity (PSR sort gate)” value is reported as “high polyreactivity”.

Regarding “QVHLQESGCGLVQAGGSLRLSCAPSGSIFVSVTMGWYRQAPGKERELVASIGRGSTTNHADSVKGRFTISRDNAKNIVYLLMNSLKPEDTAVYFCAALESYGKYHGYWGQGTKVTVSS”, the “polyreactivity (PSR sort gate)” value is given as “low polyreactivity”.

Take “QVQLVESGGGLVQAGGSLRLSCAASGYIFVRNAMGWYRQAPGKERELVAAISRTDGTTYYADSVKGRFTISRDNAKNTVYLQMNSLKPEDTAVYYCAADYLRAPYYQYEYWGQGTQVTVSS”: the “polyreactivity (PSR sort gate)” value is on record as “low polyreactivity”.

“QVQLVESGGGLVQAGGSLRLSCAASGRTFGINAMRWSRQATGKERELVAAITGRSGRTYYADSVKGRFTISRDNAKYTVYLQMNSLQPEDTAVYYCAARWPVYSRRYGYWGQGTQVTVSS”: the “polyreactivity (PSR sort gate)” value is “high polyreactivity”.

Regarding “QVQHVESGGGLVQAGGSLRLSCAASGRTFYYNDMGWSRQAPGKERELVAAISWSGVSTSYADSVKGRFTISRDNAKNTVYLQMNSLKPEDTAVYYCAADNDGWYFHITEYDYWGQGTQVTVSS”, the “polyreactivity (PSR sort gate)” value is reported as “low polyreactivity”.

Take “QVQLVESGGGLVQAGGSLLFSCAASGHIFRTYAMGWYRQAPGKERELVAAINIGGTTDYADSVKGRFTISRDNAKNTVYLQMNSLKPEDTAVYYCNAYNRFWEYVYWGQGTQVTVSS”: the “polyreactivity (PSR sort gate)” value is “low polyreactivity”.

“QVQLVESGGGLVQAGGSLRLSCAASVFTFVRYSMGWYRQAPGKERELVAAISSGGRTYYADSVKGRFTISRDNAKYTVYLQMNSLKPEDTAVYYCAADTKFGYGYWGQGTQVNVSS”: the “polyreactivity (PSR sort gate)” value is “high polyreactivity”.

For the sequence “QVQLVESGGGLVQAGGSLRLSCAASGFILGYNAMGWYRQAPGKERELVADITFSGGGTNYADSVKGRFTISRDNAKNTVYLQMNSLKPEDTAVYYCNAAAFSQLRVRYDYWGQGTQVTVSS”, the “polyreactivity (PSR sort gate)” value is recorded as “low polyreactivity”.

Turning to “QVQIVESGGGLVQAGGSLRLSCAASGRIFHWYTMGWYRQAPGKERELVAAISGSGGSTHYADSVKGRFTISRDNAKNTVYLQMNSLKPEDTAVYYCAADDGFYGQDLDYWGQGTQVTVSS”, the “polyreactivity (PSR sort gate)” value is listed as “low polyreactivity”.

In the case of “QVQLVESGGGLVQAGGSLRLSCAAYGSIFSFYVMGWNRQAPGKERELVARINWSSTSTYYADSVKGRFTISRDNAKNTVYLQMNSLKPEDTAVYYCAAGRRVYPGYYYWGQGTQVTVSS”, the “polyreactivity (PSR sort gate)” value is “high polyreactivity”.

As to “QVQHVESGGGLVQAGGSLRLSCAASGRTFNAYTMGWYRQAPGKERELVAAITSSGGNTYYADSVKGRFTISRDNAKNSVYLQMNSLKPEDTAVYYCNTVYLYGTHDYWGQGTQVTGSS”, the “polyreactivity (PSR sort gate)” value is “low polyreactivity”.

For the sequence “QVQLVESGGGLVQAGGSLRLSCAASGFTFDWYAMGWYRQAPGKERELVAAISSGGNTKYADSVKGRFTISRDNAKNTVYLQMNSLKPEDTAVYYCAARLYYSLSYYYWGQGTQVTVSS”, the “polyreactivity (PSR sort gate)” value was “high polyreactivity”.

As to “QVQLVESGGGLVQAGGSLRLSCAASGRTFYNYAMGWYRQAPGKERELVATITGRGGRTFYADSVKGRFTISRDNAKNTVYLQMNSLKPEDTAVYYCDAYRSASPYYTLYVEHDYWGQGTQVTVSS”, the “polyreactivity (PSR sort gate)” value is “low polyreactivity”.

On to “QVQLEESGGGLVQAGGSLRLSCAASGRIFSGNAKGWYRQAPGKERELVANITSSSNTNYADSVKGRFTISRDNAKNTVYLQMNSLKPEDTAVYYCAKSAHNGYSFYGYDYWGQGTQVTVSS”, for which the “polyreactivity (PSR sort gate)” value is “low polyreactivity”.

In the case of “QVQLVESGGGLVQAGGSLRLSCAASGRIFDIYDMGWYIQAPGKERELVAAITSGGNTYYADSVKWRFTISRDNAKNTVYLQMNSLKPEDTAVYYCNAARETRPRDYYWGQGTQVTVSS”, the “polyreactivity (PSR sort gate)” value is recorded as “low polyreactivity”.

“QVQLVESGGGLVQAGGSLRLSCAASGFISGYYTMRWYRQAPGKERELVAVINSGGSTYYADSVKGRFTISRDNAKNTVYFQMNSLKPEDTAVYYCAKLGGKYSRYYYWGHGTQVTVSS”: the “polyreactivity (PSR sort gate)” value is “low polyreactivity”.

Take “QVQLVESGGGLVQAGGSLRISCAASGFIFRLYAMGWYRQAPGKERELVAAIRWSGGSTTYADSVKGRFTISRDNAKNTVYLQMNSLNPEDTAVYYCAATAGRRSVTYGYWGQGTQVTVSS”: the “polyreactivity (PSR sort gate)” value is listed as “high polyreactivity”.

Turning to “QVQLVESGGGLVQAGGSLRLSCAASGSTFFYYTMGWYRQAPGKERELVAAISRGGRTNYADSVKGRFTISRDNAKNTVYLLMNSLKREDTAVFYCIADAWSFRQYWGRYDYWGQGTQVTVSS”, the “polyreactivity (PSR sort gate)” value is “high polyreactivity”.

For “QVQRVESAGGLVQAGGSLRLSCAASGFILDNYAMGWYRQAPGKERELVAAISGSGGSTYYADSVKGRFTISRDNAKNTVYLQMNSLKPEDTAVYYCNRDRLLRQYDYWGQGTQVTVSS”, the “polyreactivity (PSR sort gate)” value is given as “high polyreactivity”.

Take “QVHLVESGGGIVQAGGRLRLSCAASGLIFYHYAMGWYRQAPGKEREFVAAITVSGGSTYYADSVKGRFTITRDNAKNTVYLQMNSLKPEDSAVYYCNARSVVWWASGDYWGQGTQVTVSS”: the “polyreactivity (PSR sort gate)” value was “low polyreactivity”.

As to “QVQLVESGGGLVQAGGSLRLICAASGRSFDYYAMGWYRQAPGKERDLVAAITSGGTTTYYADSVKGRFTISRDNAKNTVYVQMNSLKPEDYAVYYCAKYPYHIYHTDGDYWGQGTQVTVSS”, the “polyreactivity (PSR sort gate)” value was “low polyreactivity”.

Regarding “QVQLVESGGGLVQAGGSLRLSCAASGSTFSKNAMGWYRQAPGKERELVASISSSGGSTYYADSVKGRFTISRDNAKNTVYLQMNSLKPEDTAVYYCNRRWYARGEYWGQGTQVTVSS”, the “polyreactivity (PSR sort gate)” value was “high polyreactivity”.

With “QVQLLESGGGLVQAGGSLRLSCAASGRTFRVYARGWYRQAPGKEREFVATISVRGGSTYYAYSVKGRFTISRDNAKITVYLQMNSLKPVDTAVYYCARSSRGNLDYWGQGTQVSVSS”, the “polyreactivity (PSR sort gate)” value was “low polyreactivity”.

Take “QVQLVESGGGLVQAGGSLRLSCAASGSTFYYYAMGWYRQAPGKERELVAAIRSSGGSTYYADSVKGRFTISRDNAKNTVYLQMNSLKPEDTAVYYCIHYLSTYHGTFTYGYWGQGTQVTVSS”: the “polyreactivity (PSR sort gate)” value is listed as “low polyreactivity”.

For the sequence “QVQLVESGGGLVQAGGSLRLSCAASGITSGNNAMGWYRQAPGKERELVAAISWTGGSTYYADSVKGRFTISRDNAKNTVYLEMNSLKPEDTAVYYCAAGGWDPFTEQHYEYWGQGTQVTVSS”, the “polyreactivity (PSR sort gate)” value is recorded as “low polyreactivity”.

“QVQLVESGGGLVQAGGSLRLSCAASGITFVRNAMGWYRQAPGKERELVAAISSGGSTYYADSVKGRFTISRDNAKNTVYLQINSLKPEDTAVYYCNAQIYGRQYRYRWHYYWGQGTQVTVSS”: the “polyreactivity (PSR sort gate)” value is given as “high polyreactivity”.

For the sequence “QVQLVESWGGLVQAGGSLRLSCAASGRTFGKYAMGWYRQAPGKERELVASITFSSGSTYYADSVKGRFTISRDNAKNTVYLQMNSLKPEDTAVYYCAKRGWGIYDYWGQGTQVTVSS”, the “polyreactivity (PSR sort gate)” value is given as “low polyreactivity”.

As for “QFQLVESGGVLDQAGGSLRLSCAASGSNFTIYAIGWYRQAPGKERELVADISSGGSTYYADSVKGRFTISRDNAKNTVYLQMNSLNPEDTAVYYCAAGVFFFTFVYWGQGTQVTVSS”, the “polyreactivity (PSR sort gate)” value was “low polyreactivity”.

“QVQLVESGGGLVQAGGSLRLTCAASGIYFTDYAMGWYRQAPGKERELVAAISGIGSTTYYADSVKGRFTISRDNAKNTVYLQMNSLKPEDTAVYYCNALLAYTYWYDYWGQGTQVSVSS”: the “polyreactivity (PSR sort gate)” value was “high polyreactivity”.

“QVQLVESWGGLVQAGGSLRLSSAASGSIFYHYAMGWYRQAPGKERELVAAISWRGASTYYADSVKGRFTISRDNAKNTVYLQMNSLKPEDTAVYYCARLSSSHPLYRDDYWGQGTQVTLSS”: the “polyreactivity (PSR sort gate)” value is reported as “high polyreactivity”.

“QVQLVESGGGLVQAGGSLRLSCAASGIIFRPYAMGWYRQAPGKERELVAAITWSGTSTYYADSVKGRFTISRDNAKNTVYLQMNSLKPEDTAVYYCAARNVFQSVHLRGGYWGQGTQVTVSS”: the “polyreactivity (PSR sort gate)” value is reported as “high polyreactivity”.

On to “QVQLVESGGGLVQAGGSLRLSCAASGFTFGAYAMGWYRQAPGTERELVAAISYRGGRTYYADSVKGRFTISRDNAKNTVYLQMNSLKPEDTAVYYGNTVYLVTWRVKGYYWGQGTQVTVSS”, for which the “polyreactivity (PSR sort gate)” value is reported as “low polyreactivity”.

For “QVQLVESGGGLVQAGGSLRLSCAASGNTFTWYTMGWYRQAPGKERELVAVITSDGSTYYADSVKGRFTISRDNAKNTVYLQMNSLKPEDTAVYYCNKATVTGQESYAYDYWGQGTQVTVSS”, the “polyreactivity (PSR sort gate)” value is “low polyreactivity”.

Turning to “QVQLQESGGGLVQADGSLRLSCAASGTIFTQSYMGWYRQAPGKEREFVAGISNGTNTNYGDSVKGRFTISRDNAKNTVYLQMNSLKLEDTAVYYCAVKGFYVDVLAYWGQGTHVTVSS”, the “polyreactivity (PSR sort gate)” value is listed as “high polyreactivity”.

“QVQLVESGGGLVQAGGSLRLSCAASGRIFDDNAMGWYRQAHGKERELVATISSTGGRTYYADSVKGRFTISRDNAKKTVYLQMNSLKPEDTAVYYCAARRLQGGYYYWGQGTQVTVSS”: the “polyreactivity (PSR sort gate)” value was “high polyreactivity”.

Take “QVQLVESGGGLVQEGGSLRLSCAASGRTFKKYAMGWYRQAPGKERELVAAITGSGGSTYYADSVKGRFTISRDNAKNTVYLQMNSLKPEDSAVYYCAAYAYGVWHSQDGGNYWGQGTQVTVSS”: the “polyreactivity (PSR sort gate)” value is reported as “low polyreactivity”.

The values above are taken from the nanobody polyreactivity screen of Harvey et al. (2022).
